Test results: patent publication US20240218393, “VECTORS ENCODING GENE EDITING SYSTEMS AND USES THEREOF” (Mammoth Biosciences, Inc., published 2024)

B1: sgRNA SEQ 204 ; target of sgRNA SEQ 204 (protospacer) (ssRNA ; dsDNA)
RNA: UGGGGCAGUUGGUUGCCCUUAGCCUGAGGCAUUUAUUGCACUCGGGAAGUACCAUUUCUCAGAAAUGGUACAUCCAACCGUGCUGUUUCCUCCCCACG
DNA 1: CGTGCTGTTTCCTCCCCACG
DNA 2: CGTGGGGAGGAAACAGCACG
B2: sgRNA SEQ 206 ; target of sgRNA SEQ 206 (protospacer) (ssRNA ; dsDNA)
RNA: UGGGGCAGUUGGUUGCCCUUAGCCUGAGGCAUUUAUUGCACUCGGGAAGUACCAUUUCUCAGAAAUGGUACAUCCAACGGGGGCGGGGGGGAGAAAAA
DNA 1: GGGGGCGGGGGGGAGAAAAA
DNA 2: TTTTTCTCCCCCCCGCCCCC
B3: sgRNA SEQ 202 ; target of sgRNA SEQ 202 (protospacer) (ssRNA ; dsDNA)
RNA: UGGGGCAGUUGGUUGCCCUUAGCCUGAGGCAUUUAUUGCACUCGGGAAGUACCAUUUCUCAGAAAUGGUACAUCCAACUCUAGGCGCCCGCUAAGUUC
DNA 1: TCTAGGCGCCCGCTAAGTTC
DNA 2: GAACTTAGCGGGCGCCTAGA

Target: T1, CasM.19952
T1 chain: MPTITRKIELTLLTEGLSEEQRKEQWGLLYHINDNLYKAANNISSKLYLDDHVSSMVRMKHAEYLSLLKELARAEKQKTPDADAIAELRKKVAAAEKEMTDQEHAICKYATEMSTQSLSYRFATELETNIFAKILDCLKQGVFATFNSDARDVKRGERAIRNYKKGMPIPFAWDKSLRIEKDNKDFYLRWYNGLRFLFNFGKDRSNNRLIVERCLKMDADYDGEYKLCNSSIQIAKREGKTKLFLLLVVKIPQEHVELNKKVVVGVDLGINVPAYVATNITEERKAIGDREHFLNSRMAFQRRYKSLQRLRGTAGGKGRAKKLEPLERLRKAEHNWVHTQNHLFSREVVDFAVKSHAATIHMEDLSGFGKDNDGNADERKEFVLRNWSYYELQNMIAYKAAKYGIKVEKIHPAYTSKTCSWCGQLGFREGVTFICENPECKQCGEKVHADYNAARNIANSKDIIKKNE
Assay: cell_activity; HEK293T, plasmid lipofection; PAM TCG or KYG (Table 1.1)
Conditions: tags: expressed from plasmid or scAAV
Method: CasM.19952 was tested for its ability to produce indels in HEK293T cells. Briefly, a plasmid encoding CasM.19952 and a guide RNA was delivered by lipofection to HEK293T cells. This was performed for a variety of guide RNAs targeting up to twenty-four loci adjacent to biochemically determined PAM sequences. Indels were detected by next generation sequencing of PCR amplicons at the targeted loci and indel percentage was calculated as the fraction of sequencing reads containing insertions or deletions relative to an unedited reference sequence. Sequencing libraries with less than 20% of reads aligning to the reference sequence were excluded from the analysis for quality control purposes. “No plasmid” and SpyCas9 were included as negative and positive controls, respectively. […] TABLE 8 describes the sequences of the single guide RNAs tested that provided the greatest percent of reads with indels. Non-bold, non-italicized, capital letters indicate the tracrRNA region of the guide RNA; italicized letters indicate a linker; bold letters indicate the repeat sequence; and the lowercase letters represent the spacer sequence.

Binder | activity [% indel reads]
B1 | 19.4
B2 | 18.4
B3 | 13.5
